Test results: patent US20250281536A1 (published 2025)

Molecular target: T1, Human CD4-Fc (human, UniProt P01730 26-390)
T1 construct: not shown: Fc
Test: BLI; human CD4-Fc captured; binder-mouse Fc homodimer at 125 nM

B1: Binder 279 expressed as homodimer with mouse Fc (Fc fusion)
chain: QVQLVQSGAEVKKPGASVKVSCKASGGTFSSYAISWVRQAPGQGLEWMGWINPNSGGTNYAQKFQGRVTMTRDTSTSTVYMELSSLRSEDTAVYYCARDGYSGSYSDWGQGTLVTVSSGGGGSGGGGSGGGGSDIVMTQSPDSLAVSLGERATINCKSSQSVLSSSYNKNYLAWYQQKPGQPPKLLIYWASTRESGVPDRFSGSGSGTDFTLTISSLQAEDVAVYYCQQYYSTPWTFGQGTKVEIK
notes: not shown: mouse Fc
Kd: 5 nM | koff: 0.00021 s⁻¹ | kon: 41700 M⁻¹ s⁻¹
